Source: PMC1308866, “Inhibition of HIV derived lentiviral production by TAR RNA binding domain of TAT protein”

Key:
Assay in all cases: EMSA; 0.25 nmol RNA in 10 ul; peptide:RNA molar ratio 0-1
Details in all cases: hairpin
Tat-P = target: T1, Tat-P (HIV, UniProt P69698)
T1 chain: YGRKKRRQRRR

Con-P2 = target: T2, Con-P2
T2 chain: ARPLEHGSDKAT

Con-P1 = target: T3, Con-P1
T3 chain: RRQRRTSKLMKR

## GCCAGAUCUGAGCCUGGGAGCUCUCUGGC (structured_RNA) [TAR RNA 29mer]
Tat-P
  binding result: binds
Con-P2
  binding result: no binding
Con-P1
  binding result: no binding
